# US20140378382A1 (WISCONSIN ALUMNI RESEARCH FOUNDATION, published 2014)
# Like-named read-outs stand apart in the source and are kept apart here. Non-standard residues stand in square brackets, D forms with d. Primed or numbered codes have the meaning given here. No end group written: not given here. APC = aminopyrrolidine carboxylic acid (2-aminopyrrolidine-4-carboxylic acid); ACPC(3) = 2-aminocyclopentane carboxylic acid (cyclic beta residue); ACPC″ = 2-aminocyclopentane carboxylic acid (X); ACPC = 2-aminocyclopentane carboxylic acid; β3hW = N[C@H](CC(=O)O)Cc1c[nH]c2ccccc12; hArg = N=C(N)NCCCC[C@H](N)C(=O)O; β3hE = N[C@@H](CCC(=O)O)CC(=O)O; β3hF = N[C@H](CC(=O)O)Cc1ccccc1; β3hQ = NC(=O)CC[C@H](N)CC(=O)O; β3hK = NCCCC[C@H](N)CC(=O)O; β3hM = CSCC[C@H](N)CC(=O)O; β3hD = NC(CC(=O)O)CC(=O)O; β3hS = N[C@@H](CO)CC(=O)O; β3hA = C[C@H](N)CC(=O)O; Aib = CC(C)(N)C(=O)O
# T1: human parathyroid hormone receptor 1, wild-type (hPTHR-1) (human, UniProt Q03431 27-593)
# T1 sequence (looked up): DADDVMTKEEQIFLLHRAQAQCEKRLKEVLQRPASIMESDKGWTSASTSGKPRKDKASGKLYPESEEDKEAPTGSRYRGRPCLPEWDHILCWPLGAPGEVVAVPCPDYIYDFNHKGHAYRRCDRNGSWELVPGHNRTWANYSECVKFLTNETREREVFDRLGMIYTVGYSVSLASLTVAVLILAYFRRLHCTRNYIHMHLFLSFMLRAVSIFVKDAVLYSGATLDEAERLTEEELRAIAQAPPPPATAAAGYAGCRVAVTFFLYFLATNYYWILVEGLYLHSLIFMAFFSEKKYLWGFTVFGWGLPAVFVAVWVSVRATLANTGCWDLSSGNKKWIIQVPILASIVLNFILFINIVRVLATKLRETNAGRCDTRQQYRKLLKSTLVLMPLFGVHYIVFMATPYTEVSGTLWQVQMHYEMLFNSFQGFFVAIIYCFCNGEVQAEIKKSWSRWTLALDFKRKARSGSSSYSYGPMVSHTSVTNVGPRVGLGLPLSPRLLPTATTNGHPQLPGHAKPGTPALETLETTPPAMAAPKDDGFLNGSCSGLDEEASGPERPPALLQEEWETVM
# T2: delNT PTHR1 (human, UniProt Q03431 27-593)
# T2 sequence (looked up): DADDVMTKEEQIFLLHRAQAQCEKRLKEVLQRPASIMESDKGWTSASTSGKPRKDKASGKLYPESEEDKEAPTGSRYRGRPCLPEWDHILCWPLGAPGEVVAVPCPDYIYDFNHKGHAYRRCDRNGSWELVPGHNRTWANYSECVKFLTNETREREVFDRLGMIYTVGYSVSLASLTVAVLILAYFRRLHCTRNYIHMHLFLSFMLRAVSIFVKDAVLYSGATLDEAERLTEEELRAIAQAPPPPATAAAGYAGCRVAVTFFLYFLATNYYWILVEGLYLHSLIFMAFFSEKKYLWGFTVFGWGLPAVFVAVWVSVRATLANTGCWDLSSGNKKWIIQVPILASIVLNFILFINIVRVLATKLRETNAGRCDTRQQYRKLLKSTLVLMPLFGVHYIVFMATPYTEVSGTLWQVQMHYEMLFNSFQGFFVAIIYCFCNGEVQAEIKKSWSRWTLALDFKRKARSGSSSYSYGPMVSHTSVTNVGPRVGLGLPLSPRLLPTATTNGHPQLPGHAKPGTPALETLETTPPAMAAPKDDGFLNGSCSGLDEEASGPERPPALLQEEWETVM
# T3: PTHR-1 (species and cells not stated for the assay) (Homo sapiens (Human), UniProt Q03431 27-593)
# T3 sequence: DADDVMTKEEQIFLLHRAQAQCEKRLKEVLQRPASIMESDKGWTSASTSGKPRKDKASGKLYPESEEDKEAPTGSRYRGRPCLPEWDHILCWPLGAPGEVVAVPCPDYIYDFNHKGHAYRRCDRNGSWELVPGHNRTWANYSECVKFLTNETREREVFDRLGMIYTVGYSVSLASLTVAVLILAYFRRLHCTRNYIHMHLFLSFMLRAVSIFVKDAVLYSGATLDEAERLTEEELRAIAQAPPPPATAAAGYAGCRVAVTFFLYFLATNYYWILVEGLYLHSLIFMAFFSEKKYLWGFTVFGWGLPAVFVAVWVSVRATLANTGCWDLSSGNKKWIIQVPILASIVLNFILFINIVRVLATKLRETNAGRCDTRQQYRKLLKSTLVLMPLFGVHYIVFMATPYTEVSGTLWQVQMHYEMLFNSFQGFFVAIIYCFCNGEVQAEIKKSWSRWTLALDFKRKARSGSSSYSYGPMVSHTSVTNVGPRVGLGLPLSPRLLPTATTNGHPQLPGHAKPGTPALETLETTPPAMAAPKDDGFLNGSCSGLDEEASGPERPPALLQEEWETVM
# T4: rat parathyroid hormone receptor 1, wild-type (rPTHR-1) (rat, UniProt P25961 27-591)
# T4 sequence (looked up): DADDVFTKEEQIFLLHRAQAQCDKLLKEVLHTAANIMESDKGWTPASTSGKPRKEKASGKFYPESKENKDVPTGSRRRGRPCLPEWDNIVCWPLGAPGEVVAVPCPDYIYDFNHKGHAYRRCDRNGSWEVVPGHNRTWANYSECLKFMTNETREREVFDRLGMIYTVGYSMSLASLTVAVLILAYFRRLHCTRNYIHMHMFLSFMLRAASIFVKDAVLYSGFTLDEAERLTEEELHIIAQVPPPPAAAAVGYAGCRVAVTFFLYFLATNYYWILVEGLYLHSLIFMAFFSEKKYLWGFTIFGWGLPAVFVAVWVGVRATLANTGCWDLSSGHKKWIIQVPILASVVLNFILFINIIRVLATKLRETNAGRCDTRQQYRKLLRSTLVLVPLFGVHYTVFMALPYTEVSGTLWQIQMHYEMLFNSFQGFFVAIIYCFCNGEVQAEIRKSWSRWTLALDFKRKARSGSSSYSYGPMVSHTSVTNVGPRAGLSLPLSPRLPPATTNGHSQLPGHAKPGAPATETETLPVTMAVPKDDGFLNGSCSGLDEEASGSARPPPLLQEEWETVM
# Tests used:
# Assay in all cases: cell-based or functional assay
# [1] = target: T1, human parathyroid hormone receptor 1, …
# [2] = target: T2, delNT PTHR1
# [3] = target: T1, human parathyroid hormone receptor 1, …; remark: listed apart in the source
# [4] = target: T3, PTHR-1 (species and cells not stated …)
# [5] = target: T4, rat parathyroid hormone receptor 1, …; design: AUC-on / AUC-washout: unit not given beside the values
# [6] = target: T1, human parathyroid hormone receptor 1, …; remark: listed apart in the source
# [7] = target: T1, human parathyroid hormone receptor 1, …; remark: listed apart in the source
# [8] = target: T4, rat parathyroid hormone receptor 1, …
binder,measurement,setting,value
[β3hS]VSEIQLMHNLGKHLNSMERVEWLRKKLQDVHNF-NH2 [β3Ser(1) PTH(1-34)],cAMP EC50,[1],0.06 nM
SVSE[ACPC]QLMHNLGKHLNSMERVEWLRKKLQDVHNF-NH2 [ACPC(5) PTH(1-34)],Fold PTH,[2],65 fold
same,cAMP EC50,[2],4100 nM
same,Fold PTH,[1],1.9 fold
same,cAMP EC50,[1],0.17 nM
"[ACPC]VSEHQ[ACPC]LHDKGKSIQDLRRRELLEKLL[Aib]KLHTA-NH2 [BA058 ACPC(1,7)]",cAMP EC50,[3],4.69 nM
[β3hA]VSEIQLMHNLGKHLNSMERVEWLRKKLQDVHNF-NH2 (N-terminus assumed; SMILES CC[C@H](C)[C@H](NC(=O)[C@H](CCC(=O)O)NC(=O)[C@H](CO)NC(=O)[C@@H](NC(=O)C[C@H](C)N)C(C)C)C(=O)N[C@@H](CCC(N)=O)C(=O)N[C@@H](CC(C)C)C(=O)N[C@@H](CCSC)C(=O)N[C@@H](Cc1c[nH]cn1)C(=O)N[C@@H](CC(N)=O)C(=O)N[C@@H](CC(C)C)C(=O)NCC(=O)N[C@@H](CCCCN)C(=O)N[C@@H](Cc1c[nH]cn1)C(=O)N[C@@H](CC(C)C)C(=O)N[C@@H](CC(N)=O)C(=O)N[C@@H](CO)C(=O)N[C@@H](CCSC)C(=O)N[C@@H](CCC(=O)O)C(=O)N[C@@H](CCCNC(=N)N)C(=O)N[C@H](C(=O)N[C@@H](CCC(=O)O)C(=O)N[C@@H](Cc1c[nH]c2ccccc12)C(=O)N[C@@H](CC(C)C)C(=O)N[C@@H](CCCNC(=N)N)C(=O)N[C@@H](CCCCN)C(=O)N[C@@H](CCCCN)C(=O)N[C@@H](CC(C)C)C(=O)N[C@@H](CCC(N)=O)C(=O)N[C@@H](CC(=O)O)C(=O)N[C@H](C(=O)N[C@@H](Cc1c[nH]cn1)C(=O)N[C@@H](CC(N)=O)C(=O)N[C@@H](Cc1ccccc1)C(N)=O)C(C)C)C(C)C) [β3Ala(1) PTH(1-34)],Fold PTH,[2],0.4 fold
same,cAMP EC50,[2],25 nM
same,Fold PTH,[1],2.2 fold
same,cAMP EC50,[1],0.2 nM
S[ACPC]SEIQLMHNLGKHLNSMERVEWLRKKLQDVHNF-NH2 [ACPC(2) PTH(1-34)],Fold PTH,[2],170 fold
same,cAMP EC50,[2],11000 nM
same,Fold PTH,[1],3 fold
same,cAMP EC50,[1],0.27 nM
[ACPC]VSEIQLMHNLGKHLNSMERVEWLRKKLQDVHNF-NH2 [ACPC(1) PTH(1-34)],Fold PTH,[2],8 fold
same,cAMP EC50,[2],500 nM
same,Fold PTH,[1],1.6 fold
same,cAMP EC50,[1],0.15 nM
"[ACPC]VSEHQ[ACPC]LHDKGKSIQDLRRRELLEKLL[Aib]KLHT[ACPC]-NH2 (not fully specified; also: D6 β3 residues, positions not shown (marking lost)) [D6 BA058 ACPC(1,7)]",cAMP EC50,[3],141 nM
"[ACPC″]V[Aib]E[ACPC″]Q[ACPC″]MHQ[hArg]AK[β3hW]LNS[β3hM]RRV[β3hE]WLR[β3hK]KLQ[β3hD]VHN[β3hF]-NH2 (also: β3 residues (bold, underlined) not marked in the text) [M-X1,5,7-D6]",Fold PTH,[4],9.7 fold
same,cAMP EC50,[4],0.79 nM
SVSEI[β3hQ]LMHNLGKHLNSMERVEWLRKKLQDVHNF-NH2 [β3Gln(6) PTH(1-34)],cAMP EC50,[2],6700 nM
same,cAMP EC50,[1],14.6 nM
AVAEIQLMHQ[hArg]AKWLNSMRRVEWLRKKLQDVHNF-NH2 (N-terminus assumed; SMILES CC[C@H](C)[C@H](NC(=O)[C@H](CCC(=O)O)NC(=O)[C@H](C)NC(=O)[C@@H](NC(=O)[C@H](C)N)C(C)C)C(=O)N[C@@H](CCC(N)=O)C(=O)N[C@@H](CC(C)C)C(=O)N[C@@H](CCSC)C(=O)N[C@@H](Cc1c[nH]cn1)C(=O)N[C@@H](CCC(N)=O)C(=O)N[C@@H](CCCCNC(=N)N)C(=O)N[C@@H](C)C(=O)N[C@@H](CCCCN)C(=O)N[C@@H](Cc1c[nH]c2ccccc12)C(=O)N[C@@H](CC(C)C)C(=O)N[C@@H](CC(N)=O)C(=O)N[C@@H](CO)C(=O)N[C@@H](CCSC)C(=O)N[C@@H](CCCNC(=N)N)C(=O)N[C@@H](CCCNC(=N)N)C(=O)N[C@H](C(=O)N[C@@H](CCC(=O)O)C(=O)N[C@@H](Cc1c[nH]c2ccccc12)C(=O)N[C@@H](CC(C)C)C(=O)N[C@@H](CCCNC(=N)N)C(=O)N[C@@H](CCCCN)C(=O)N[C@@H](CCCCN)C(=O)N[C@@H](CC(C)C)C(=O)N[C@@H](CCC(N)=O)C(=O)N[C@@H](CC(=O)O)C(=O)N[C@H](C(=O)N[C@@H](Cc1c[nH]cn1)C(=O)N[C@@H](CC(N)=O)C(=O)N[C@@H](Cc1ccccc1)C(N)=O)C(C)C)C(C)C) [M-PTH(1-34)],Fold PTH,[4],4.2 fold
same,cAMP EC50,[4],0.34 nM
same,AUC Ratio,[5],14.8
same,AUC-on,[5],43000
same,AUC-washout,[5],640000
"SVSEIQLMHNLGKHLNSMERVEWLRKKLQDVHNF-NH2 (also: three β3 residues (αααβ pattern), positions not given here in text) [A3]",cAMP EC50,[6],0.29 nM
same,cAMP EC50,[7],0.29 nM
same,cAMP Max,[8],74 cps × 10-3
SVSEI[ACPC]LMHNLGKHLNSMERVEWLRKKLQDVHNF-NH2 [ACPC(6) PTH(1-34)],Fold PTH,[2],360 fold
same,cAMP EC50,[2],22000 nM
same,Fold PTH,[1],3.7 fold
same,cAMP EC50,[1],0.34 nM
"H[ACPC(3)]V[Aib]E[ACPC(3)]Q[ACPC(3)]MHQ[hArg]AK[ACPC(3)]LNS[ACPC(3)]RRV[β3hE]WLR[APC]KLQ[β3hD]VHN[ACPC(3)]-NH2 (not fully specified) [M-X1,5,7-CycD6]",Fold PTH,[4],3.8 fold
same,cAMP EC50,[4],0.31 nM
SV[ACPC]EIQLMHNLGKHLNSMERVEWLRKKLQDVHNF-NH2 [ACPC(3) PTH(1-34)],Fold PTH,[2],130 fold
same,cAMP EC50,[2],7800 nM
same,Fold PTH,[1],126 fold
same,cAMP EC50,[1],11.5 nM
"[ACPC″]V[Aib]EIQ[ACPC″]MHQ[hArg]AK[ACPC″]LNS[ACPC″]RRV[APC]WLR[APC]KLQ[ACPC″]VHN[ACPC″]-NH2 [M-FcycD6_ACPC(1,7)]",Fold PTH,[4],21.8 fold
same,cAMP EC50,[4],1.77 nM
SVSEIQL[ACPC]HNLGKHLNSMERVEWLRKKLQDVHNF-NH2 [ACPC(8) PTH(1-34)],Fold PTH,[2],480 fold
same,cAMP EC50,[2],29000 nM
same,Fold PTH,[1],107 fold
same,cAMP EC50,[1],9.74 nM
"[ACPC″]V[Aib]E[ACPC″]Q[ACPC″]MHQ[hArg]AK[ACPC″]LNS[ACPC″]RRV[APC]WLR[APC]KLQ[ACPC″]VHN[ACPC″]-NH2 [M-X1,5,7-FcycD6]",Fold PTH,[4],9.5 fold
same,cAMP EC50,[4],0.78 nM
AVSEHQLLHDKGK[ACPC]IQD[ACPC]RRR[APC]LLE[APC]LL[Aib][ACPC]LHT[ACPC]-NH2 [CycD6 BA058],cAMP EC50,[3],0.18 nM
